Test results taken from PMC4479705 (mBio, 2015).

B1: human anti-FHbp Fab 7B (Fab, V domains shown)
VH: QVQLVQSGPEVKKPGASVKISCKTSGYTFTTNALYWVRQAPGQRPEWVGWLNTGNGNSKTSQNFQGRVTITRDTSASSTYMELSSLTFEDTAVYFCARRPSGDYNTYYFDFWGQGTLVTVSS
VL: EIVMTQSPGTLSLSPGGRGTLSCRASESVSSSYISWYQHKSGQAPRLLIYGASSRATGIPDRFSGSGSGTDFTLTISRLEPEDFAVYYRQYFSGSKGLTFGPGTKVDIK
B2: human anti-FHbp Fab 2A (Fab, V domains shown)
VH: QVQLQQSGSGLVKPSQTLSLTCTVSGGSINIGDRYWSWLRQSPGKGLEWIGYIDYSGDTYYNSSLKSRAAISIDTSNKQFSLKLSSVTAADTAVYYCARGSSDFSSGYFFDYWGQGTLVTVSS
VL: ETTLTQSPATLSVSPGERAILSCRDSQSVSSNLAWYQQKPGQAPRLLIFGASTRATGIPARFSGSGSGTEFTLTISSLQSEDFAVYYCQQYNNWLSFGQGTKLEIK
B3: human anti-FHbp Fab 4B (Fab, V domains shown)
VH: EVQLVESGGGLAQPGGSLRLSCVASGSTFGSYAIYWVRQAPGKGLEWVSGISGSGTKIDYADSVKGRFTISRDISKNTLYLQMNSLRAEDTAVYYCAKLGFFDYWGQGTQVTVSS
VL: EIVLTQSPDTLSLSPGERATLSCRASQSVSTYLFWYQKKPGQAPRLLIFDASNRATGIPVRFSGSGSGTDFTLTISSLEPEDFAVYYCQQRSNWPQTFGGGTKVEIK
B4: human anti-FHbp Fab 8A (Fab, V domains shown)
VH: QVQLVESGGGLVQPGGSLRLSCVTSGFTFRSYAMTWVRQAPGKGLEWVSSISHSGGSTKYADSVKGRLTISRDDSMDTLYLQMNSLRAEDTAIYYCAKDQISYPAASPLDYWGRGTLVTVSS
VL: EIVLTQSPGTLSLSPGERATLSCRASQSFSSFSLAWYQQKPGQAPRLLIYAPSNRATGIADRFSGSGSGTDFTLTISRLEPEDFAVYYCQQYGSSPITFGQGTRLEIK
B5: human anti-FHbp Fab 9B (Fab, V domains shown)
VH: EVQLVQSGAELKKPGESLKISCKASGYTFTNYWVVWVRQMPGEGLEWMGSIHPRDSDARYSLSFEGRVTFSVDKSTTTAYLQWSSLKVSDSAIYYCARLSQVSGWSPWVGPWGQGTLVTVSS
VL: DIVMTQSPSSLSASVGDRVTITCRASQSISVSLNWYQQKPGKAPKVLIYAASRLQSGIPSRFSGSGSGSHFTLTISSLQPEDFATYYCQETYSDLMYTFGQGTKVEIK
B6: human anti-FHbp Fab 10C (Fab, V domains shown)
VH: QVQLVESGGGVVQPGRSLRLSCPASGFTFSRYALHWVRQAPGKGLEWVAVISFDGSFKYYADSVKGRFSISRDNFKNTLYLQMNSLRAEDTAVYYCAKDDTLHASGWGGFDYWGQGALVTVSS
VL: EIVLTQSPATLSLSPGERATLSCRASQSVTSYLTWYQHKPGQAPRLLIYHTSYRATGIPARFSGSGSGTDFTLSITSLEPEDFAVYYCQQRSNWPFTFGPGTKVDIK
B7: human anti-FHbp Fab 5B (Fab, V domains shown)
VH: EVQLLESGGGLVQPGGSLRLSCAASGYTFGSYAMTWVRQGPGKGLEWVSTILGSGADTYYADSVKGRFTISRDNSRNTLFMQLSSLRAEDTAVYYCAKLGYYDTWGQGTLVTVSS
VL: EIVLTQSPATLSLSPGERATLSCRASQSIASYLYWYQQKPGQAPRLLIFDASNRATGTPARFSGSGSGTDFTLTISSLEPEDFAVYYCQQRNNWPRALTFGGGTKVEIK
B8: control chimeric human-mouse anti-FHbp Fab 502 (Fab, V domains shown)
VH: EVQLQESGPGLAKPSQTLSLTCSVTGYSITSDFWNWIRKFPGNKLEYMGYISYSGSTDYNPSLKSRISITRDTSKNQYYLQLNSVTAEDTATYYCARYFGSSYAMDHWGQGTSVTVSS
VL: DIQMTQSPASLSASVGETVTITCRASGNIHNYLAWYQQKQGKSPQLLVYTAKTLAEGVPSRFSGSGSGTQFSLKINSLQPEDFGSYYCQHFWSTPWTFGGGTKLEIK
B9: human anti-FHbp Fab 3C (Fab, V domains shown)
VH: QVQLQESGPGLVKPSETLSLTCTVSGYSITRGYYWGWIRQPPGKGLEWIGGIYHSGTTYQNPSLRSRVTFSVDTSKNQFSLKLRSVTAADTAVYYCARDNYSSNLDYWGQGTMVTVSS
VL: EIVLTQSPGTLSLSPGERATLSCRASQSVSSSYLAWYQQKAGQAPRLLIYGASSRATGIPERFSGSGSGTDFTLTISRLEPEDFAIYYCQQYGSSRFIFGPGTKVDIK
B10: human anti-FHbp Fab 6B (Fab, V domains shown)
VH: EVQLVESGGGLVQPGGSLRLSCAASGFTFSSYAMSWVRQAPGKGLEWVSAISGSGGSSHYTDSVKGRFTISRDNSKNTLWLQMNSLRAEDTAIYYCAKTSGSYYYHYEIDVWGQGTTVTVSS
VL: EIVLTQSPGTLSLSPGERATLSCRASQSVSSSYLAWYQQKPGQAPRLLIYGTSNRATGIPDRFSGSGSGTDFTLTVSRLEPEDFAVYYCQQYGSSPCSFGQGTKLELK

The binders below were run against recombinant factor H binding protein (FHbp) ID 1 (Neisseria meningitidis) (UniProt Q9JXV4) (assay: SPR).
Sequence of recombinant factor H binding protein (FHbp) ID 1 (Neisseria meningitidis) (Q9JXV4 20-274): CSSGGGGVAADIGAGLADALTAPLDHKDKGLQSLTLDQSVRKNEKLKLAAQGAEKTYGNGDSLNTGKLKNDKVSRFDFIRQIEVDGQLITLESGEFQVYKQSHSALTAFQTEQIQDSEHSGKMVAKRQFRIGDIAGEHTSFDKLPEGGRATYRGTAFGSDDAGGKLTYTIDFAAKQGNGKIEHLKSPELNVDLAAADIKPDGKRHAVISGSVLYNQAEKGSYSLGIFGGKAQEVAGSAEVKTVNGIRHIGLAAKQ

Row | Binder | Kd [nM]
1 | B1 | 22.9

What follows are binders tested against recombinant factor H binding protein (FHbp) ID 1 (Neisseria meningitidis serogroup B …, UniProt Q9JXV4) (assay: SPR).
Sequence of recombinant factor H binding protein (FHbp) ID 1 (Q9JXV4 20-274): as above

Row | Binder | Kd [nM] | koff [s⁻¹] | kon [M⁻¹ s⁻¹]
2 | B2 | 115 | 0.061 | 530000
3 | B3 | 0.86 | 0.0006 | 720000
4 | B4 | 1.04 | 0.002 | 2.3e+06
5 | B5 | 0.019 | 4e-05 | 1.85e+06
6 | B6 | 0.68 | 0.0005 | 930000
7 | B7 | 10.6 | 0.0041 | 390000
8 | B8 | 4.8 | 0.0053 | 1.09e+06
9 | B9 | 130 | 0.0032 | 30000
10 | B10 | 0.82 | 0.0004 | 500000
